The target of this experiment is ChuX. Kind of experiment: AUC.

As to ChuX (natural protein), the percent of the sample as dimer (2.9 S species) was 81.3% and the percent of the sample as tetramer (4.5 S species) was found to be 10.8%.

Values taken from article PMC7189753.
